T1: LAG-3 (lymphocyte activation gene 3) (Homo sapiens, UniProt P18627 P18627:23-450)
T1 sequence: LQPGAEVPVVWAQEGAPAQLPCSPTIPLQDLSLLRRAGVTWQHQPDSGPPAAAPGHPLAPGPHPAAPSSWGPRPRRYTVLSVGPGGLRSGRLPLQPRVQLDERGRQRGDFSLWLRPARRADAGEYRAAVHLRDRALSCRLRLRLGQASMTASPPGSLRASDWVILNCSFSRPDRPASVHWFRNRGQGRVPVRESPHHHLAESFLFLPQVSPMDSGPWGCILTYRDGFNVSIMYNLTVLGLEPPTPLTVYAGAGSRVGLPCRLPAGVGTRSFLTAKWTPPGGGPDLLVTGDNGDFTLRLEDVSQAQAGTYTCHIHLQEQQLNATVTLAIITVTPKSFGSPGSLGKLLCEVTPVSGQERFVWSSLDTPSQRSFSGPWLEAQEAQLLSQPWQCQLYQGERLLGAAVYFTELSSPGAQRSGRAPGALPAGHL


Columns and labels:
[1] = molecular target: T1, LAG-3 (lymphocyte activation gene 3); test: pulldown; His-LAG-3 on nickel beads, bound aptamer eluted and detected by qPCR; conditions: tags: His-tagged, attached to nickel coated beads or plate wells; label: 5'-biotin
[2] = molecular target: T1, LAG-3 (lymphocyte activation gene 3); test: pulldown; His-LAG-3 on nickel beads, qPCR; conditions: tags: His-tagged, attached to nickel coated beads or plate wells; label: 5'-biotin
Method: (§1) To directly test binding of LAG-3 aptamers to LAG-3, in vitro binding assays were performed using His-tagged recombinant LAG-3 attached to nickel coated beads or nickel coated wells of a plate. Bound LAG-3 aptamers were eluted and detected by qPCR. Using the bead based assay, binding of aptamers B4 and B8 to recombinant LAG-3 increased in a concentration dependent manner. FIG. 1C. […] FIG. 1D.
To identify the minimal sequence of aptamer B4 that is involved in binding to LAG-3, various truncated versions of aptamer B4 were prepared and their binding activities to LAG-3 were investigated in the binding assays described herein, using R9R as a negative control. Aptamer sequences of these truncated versions of aptamer B4 and their dissociation constants (Kds) for binding to recombinant LAG-3 are shown in Table 2. Binding of aptamers B4, B4-SL2, B4-SL3, and B4-SL4 to recombinant LAG-3 increased in a concentration dependent manner. FIG. 1E. […] FIG. 1E.

[3] = molecular target: T1, LAG-3 (lymphocyte activation gene 3); test: pulldown; concentration dependent; nickel beads, qPCR; conditions: tags: His-tagged, attached to nickel coated beads or plate wells
Method: as §1

Binder	Kd [2]	further results
5'Bio-B4 (ssDNA) DNA: TCCCTACGGCGCTAACTGGGGGGGGTTAGTTCAATACATGCGGGCGGCCACCGTGCTACAAC		Kd [1]: 38.1 nM
ACGGCGCTAACTGGGGGGGGTTAGTTCAATACATG (ssDNA) [5'Bio-B4-SL2]	8.05 nM	
GCTAACTGGGGGGGGTTAGTTCAATACATGCGGGC (ssDNA) [5'Bio-B4-SL3]	10.7 nM	
CTGGGGGGGGTTAGTTCAATACATGCGGGCGGCCA (ssDNA) [5'Bio-B4-SL4]	9.47 nM	
B8 (ssDNA) DNA: TCCCTACGGCGCTAACTGGGGGGGGGTTAGACTTACACTCTTATTCGGCCACCGTGCTACAAC		binding result [3]: binds
